The numbers were not newly measured in paper PMC3050594, which cites them from elsewhere.

Read-outs that look alike come from different tables or passages of the source.

Series [1] deals with RSV F glycoprotein (Human respiratory syncytial virus) (UniProt P03420).
For series [2] the target is unchanged. This is another data set of the same source.

Take palivizumab: the Kd (in general, the free concentration of one partner at which half of the binding sites on the other are occupied at equilibrium, for simple one-to-one binding) in series [1] was 1.4 nM.

For the substance motavizumab, the Kd in series [2] is 0.035 nM.
